Patent US20180043014A1 (CELLDEX THERAPEUTICS, published 2018)

Molecular target: T1, CG56972-ECD, recombinant human GPNMB extracellular domain (aa 23-480), GPNMB-V5His (human, UniProt Q14956 23-492)
T1 construct: Expressed in HEK293 cells; also called GPNMB-V5His immunogen; purified CG56972-ECD protein; not shown: The tag would matter only for the xV5 reagent, not for the anti-GPNMB antibodies
T1 sequence: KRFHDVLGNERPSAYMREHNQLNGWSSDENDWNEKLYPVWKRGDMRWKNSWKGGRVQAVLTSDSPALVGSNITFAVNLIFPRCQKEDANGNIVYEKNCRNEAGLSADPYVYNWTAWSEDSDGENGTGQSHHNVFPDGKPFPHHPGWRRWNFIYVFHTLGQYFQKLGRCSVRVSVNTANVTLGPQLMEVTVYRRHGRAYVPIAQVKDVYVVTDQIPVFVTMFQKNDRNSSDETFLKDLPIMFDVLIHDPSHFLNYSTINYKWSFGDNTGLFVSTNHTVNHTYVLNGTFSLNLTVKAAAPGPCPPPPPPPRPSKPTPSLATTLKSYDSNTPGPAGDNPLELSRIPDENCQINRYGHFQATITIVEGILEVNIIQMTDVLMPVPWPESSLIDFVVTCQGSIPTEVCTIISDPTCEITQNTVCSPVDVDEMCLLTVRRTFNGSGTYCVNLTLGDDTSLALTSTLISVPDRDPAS
Experiment: method not stated; purified CG56972-ECD protein

B1: CR011, fully human monoclonal antibody Mab 1.15.1 (IgG2) (antibody, V domains shown)
VH: QVQLQESGPGLVKPSQTLSLTCTVSGGSISSFNYYWSWIRHHPGKGLEWIGYIYYSGSTYSNPSLKSRVTISVDTSKNQFSLTLSSVTAADTAVYYCARGYNWNYFDYWGQGTLVTVSS
VL: not shown
notes: The unconjugated IgG2 form was used in flow cytometry; also called CR011 (anti-GPNMB)
Kd: 52 nM
